This note sets out measurements from US20130336885A1 (Genentech, published 2013).

In assay [1] the target is T1, gD epitope-tagged LgR5 22-123 (amino acids 22-123 of SEQ ID NO: 67) with a C-terminal GPI anchor on … (human, UniProt O75473 22-123, C-terminal GPI anchor).
T1 sequence: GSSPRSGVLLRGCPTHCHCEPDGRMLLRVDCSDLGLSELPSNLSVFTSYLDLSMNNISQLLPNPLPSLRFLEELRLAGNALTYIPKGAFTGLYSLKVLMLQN
The assay is described as follows: FACS on transiently transfected 293 cells.

Assay [2] addresses T2, human LgR5 ECD (amino acids 22-557 fused to His-Fc expressed in a baculovirus system, or amino acids 22-558 … (human, UniProt O75473 22-557)).
T2 construct: not shown: C-terminal His-tagged Fc
T2 sequence: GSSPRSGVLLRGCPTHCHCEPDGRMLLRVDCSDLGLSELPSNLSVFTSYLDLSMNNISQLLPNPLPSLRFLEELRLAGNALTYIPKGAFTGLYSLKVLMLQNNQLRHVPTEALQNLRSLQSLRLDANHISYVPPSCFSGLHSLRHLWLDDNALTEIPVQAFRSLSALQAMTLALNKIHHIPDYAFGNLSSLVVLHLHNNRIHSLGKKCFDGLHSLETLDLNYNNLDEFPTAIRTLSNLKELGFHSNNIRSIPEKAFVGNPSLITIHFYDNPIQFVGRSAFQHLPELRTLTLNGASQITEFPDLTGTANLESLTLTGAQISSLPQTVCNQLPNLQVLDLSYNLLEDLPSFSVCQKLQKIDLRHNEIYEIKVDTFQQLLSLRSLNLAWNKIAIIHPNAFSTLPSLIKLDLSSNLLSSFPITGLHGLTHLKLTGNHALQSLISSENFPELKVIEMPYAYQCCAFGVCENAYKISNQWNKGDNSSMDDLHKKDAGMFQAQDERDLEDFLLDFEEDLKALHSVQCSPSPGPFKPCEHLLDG
The assay is described as follows: BIAcore-3000 SPR, IgG captured on goat anti-human Fc, human LgR5 ECD-Fc injected, 25 C, 1:1 Langmuir model. The procedure: The affinity of each 8E11 IgG variant for human LgR5 was determined by surface plasmon resonance using a BIAcore™-3000. BIAcore™ research grade CMS chips were activated with 1-ethyl-3-(3-dimethylaminopropyl) carbodiimide (EDC) and N-hydroxysuccinimide (NHS) reagents according to the supplier's instructions. Goat anti-human Fc IgGs were coupled to the chips to achieve approximately 10,000 response units (RU) in each flow cell. Unreacted coupling groups were blocked with 1M ethanolamine. For kinetics measurements, anti-LGR5 antibodies were captured to achieve approximately 300 RU. Two-fold serial dilutions of human LgR5ECD (amino acids 22-557 fused to His-Fc expressed in a baculovirus system, or amino acids 22-558 fused to Fc expressed from CHO cells; 125 nM to 0.49 nM) were injected in HBS-P buffer (0.01M HEPES pH7.4, 0.15M NaCl, 0.005% surfactant P20) at 25° C. with a flow rate of 30 μl/min. Association rates (kₒₙ) and dissociation rates (koff) were calculated using a 1:1 Langmuir binding model (BIAcore™ Evaluation Software version 3.2). The equilibrium dissociation constant (Kd) was calculated as the ratio koff/kₒₙ.
A general note: Surface plasmon resonance follows binding to a sensor surface in real time, without labels.

For assay [3], the target named is T3, gD epitope-tagged rat LgR5 expressed on stably transfected 293 cells (rat, UniProt D4AC13 22-907).
T3 construct: also called gD-tagged rat LgR5
T3 sequence: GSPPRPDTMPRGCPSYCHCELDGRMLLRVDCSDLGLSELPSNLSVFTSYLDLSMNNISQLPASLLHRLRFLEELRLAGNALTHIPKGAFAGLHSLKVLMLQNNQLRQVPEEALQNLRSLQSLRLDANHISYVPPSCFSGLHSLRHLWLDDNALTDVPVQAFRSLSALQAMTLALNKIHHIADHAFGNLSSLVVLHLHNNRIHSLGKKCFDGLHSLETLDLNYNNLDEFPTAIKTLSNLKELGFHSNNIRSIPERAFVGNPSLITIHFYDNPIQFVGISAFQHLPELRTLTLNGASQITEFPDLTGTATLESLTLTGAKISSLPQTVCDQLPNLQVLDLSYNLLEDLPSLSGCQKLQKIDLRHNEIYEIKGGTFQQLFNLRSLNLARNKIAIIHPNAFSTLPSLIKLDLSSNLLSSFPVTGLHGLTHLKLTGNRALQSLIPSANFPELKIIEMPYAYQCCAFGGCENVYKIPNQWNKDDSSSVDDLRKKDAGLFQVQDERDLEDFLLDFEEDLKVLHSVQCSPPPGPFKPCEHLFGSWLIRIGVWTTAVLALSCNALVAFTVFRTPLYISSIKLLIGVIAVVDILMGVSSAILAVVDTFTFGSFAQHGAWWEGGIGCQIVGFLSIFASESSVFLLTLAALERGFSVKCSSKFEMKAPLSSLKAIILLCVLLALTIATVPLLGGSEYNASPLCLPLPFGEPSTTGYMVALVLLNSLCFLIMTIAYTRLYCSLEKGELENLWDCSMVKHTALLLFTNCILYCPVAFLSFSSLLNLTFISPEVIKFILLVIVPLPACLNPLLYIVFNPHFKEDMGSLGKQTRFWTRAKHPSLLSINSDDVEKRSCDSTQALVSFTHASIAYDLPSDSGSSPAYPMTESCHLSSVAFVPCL
In words: FACS on 293 cells stably transfected with gD epitope-tagged LgR5, 10 ug/ml antibody, R-Phycoerythrin goat anti-human detection. The procedure: (§1) Monoclonal antibodies were tested to determine if they cross-react with LgR5 from species other than human. […] Residues that are identical among all four species are indicated by asterisks (*). […] YW353 antibody binds human and cynomolgus monkey LgR5, but not rat or mouse LgR5. Ch8E11 and hu8E11.v2 antibodies bind all four species of LgR5, although binding to rat LgR5 is not as strong as binding to human, cynomolgus monkey, or mouse LgR5. 2H6 antibody binds to human and mouse LgR5, and was not tested for binding to cynomolgus monkey or rat LgR5.

The target in assay [4] is T3, gD epitope-tagged rat LgR5 expressed on …. The assay is described as follows: FACS on stably transfected 293 cells, detected with R-Phycoerythrin goat anti-human antibody. The procedure: as §1

B1: humanized monoclonal antibody 8E11.v2 (antibody, human IgG1, kappa, V domains shown)
VH: EVQLVQSGAEVKKPGASVKVSCKASGYTFSAYWIEWVRQAPGQGLEWIGEILPGSDSTDYNEKFKVRATFTSDTSTSTVYLELSSLRSEDTAVYYCARGGHYGSLDYWGQGTLVTVSS
VL: DIVMTQSPDSLAVSLGERATINCRASESVDNYGNSFMHWYQQKPGQPPKLLIYLASNLESGVPDRFSGSGSGTDFTLTISSLQAEDVAVYYCQQNYEDPFTFGQGTKVEIKR
notes: It was assessed as an IgG; also called hu8E11.v2; hu8E11v2
For B1, the binding result in assay [1] is recorded as “no binding (tested: 10 µg/ml)”. Moreover, in assay [2], the Kd (in general, a measure of binding affinity in units of concentration) worked out at 3.1 nM; the koff (in general, the rate constant with which the complex falls apart) turned out to be 0.000853 s⁻¹; the kon – broadly, a measure of how fast the partners come together – was 279000 M⁻¹ s⁻¹.

B2: chimeric monoclonal antibody 8E11 (antibody, human IgG1, V domains shown)
VH: QVQLQQSGTELMKPGASVKISCKATGYTFSAYWIEWIKQRPGHGLEWIGEILPGSDSTDYNEKFKVKATFSSDTSSNTVYIQLNSLTYEDSAVYYCARGGHYGSLDYWGQGTTLKVSS
VL: NIVLTQSPASLAVSLGQRATISCRASESVDNYGNSFMHWYQQKPGQPPKLLIYLASNLESGVPARFSGSGSRTDFTLTIDPVEADDAATYYCQQNYEDPFTFGSGTKVEIKR
notes: also called ch8E11; chimeric 8E11
With B2, the binding result in assay [1] is reported as “no binding (tested: 10 µg/ml)”. In addition, in assay [2], the equilibrium dissociation constant (Kd) came out at 3 nM, the koff stood at 0.00064 s⁻¹ and the kon was determined as 210000 M⁻¹ s⁻¹. The binding result in assay [3] is “binds”.

B3: human antibody YW353 (antibody, human IgG1, kappa, V domains shown)
VH: EVQLVESGGGLVQPGGSLRLSCAASGFTFTSYSISWVRQAPGKGLEWVAEIYPPGGYTDYADSVKGRFTISADTSKNTAYLQMNSLRAEDTAVYYCAKARLFFDYWGQGTLVTVSS
VL: DIQMTQSPSSLSASVGDRVTITCRASQDVSTAVAWYQQKPGKAPKLLIYSASFLYSGVPSRFSGSGSGTDFTLTISSLQPEDFATYYCQQSYTTPPTFGQGTKVEIKR
notes: also called huYW353
Consider B3, for which the binding result in assay [4] is reported as “no binding (tested: 10 µg/ml)”.
